Ends that are not written are not given here.
What was measured:
[1] = molecular target: T1, rat α-CGRP (1-37) (rat, C-terminal amide; N-terminal biotin when captured on the SA chip); assay: Biacore, 37°C, Fab over N-biotinylated CGRP on SA chip, high-resolution two-part experiment
T1 construct: also called rat α (1-37); α-rat
T1 peptide: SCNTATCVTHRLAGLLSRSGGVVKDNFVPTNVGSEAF
Description: (§1) Biacore assay for affinity determination. […] All Biacore assays were conducted in HBS-EP running buffer (10 mM HEPES pH 7.4, 150 mM NaCl, 3 mM EDTA, 0.005% v/v polysorbate P20). CGRP surfaces were prepared by diluting the N-biotinylated CGRP to a concentration of less than 0.001 mg/mL into HBS-EP buffer and injecting it across the SA sensor chip using variable contact times. […] Samples were typically injected for 1 minute at 100 μL/min and dissociation times of at least 10 minutes were allowed. […] An entire titration series (typically generated in duplicate) was fit globally to a 1:1 Langmuir binding model using the BIAevaluation program. This returned a unique pair of association and dissociation kinetic rate constants (respectively, kₒₙ and koff) for each binding interaction, whose ratio gave the equilibrium dissociation constant (KD=koff/kₒₙ).
(§2) High-resolution analysis of binding interactions with extremely slow off rates. […] The protocol described above was used with the following modifications.

[2] = molecular target: T2, human α-CGRP 1-37 (WT) (human, C-terminal amide; N-terminal biotin when captured on the SA chip; 125I-labelled in the radioligand assay); assay: as above
T2 construct: also called α-human
T2 peptide: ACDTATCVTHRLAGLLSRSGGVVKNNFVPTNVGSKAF
Description: as §1, §2

[3] = molecular target: T3, human α-CGRP P29A (25-37) (human, not fully specified); assay: Biacore, 37°C, G1 Fab titrated over N-biotinylated peptide on chip
T3 construct: the entry already carries P29A
T3 peptide: NNFVATNVGSKAF-NH2
Description: (§3) All Biacore assays were conducted in HBS-EP running buffer (10 mM HEPES pH 7.4, 150 mM NaCl, 3 mM EDTA, 0.005% v/v polysorbate P20). CGRP surfaces were prepared by diluting the N-biotinylated CGRP to a concentration of less than 0.001 mg/mL into HBS-EP buffer and injecting it across the SA sensor chip using variable contact times. […] Samples were typically injected for 1 minute at 100 μL/min and dissociation times of at least 10 minutes were allowed. […] An entire titration series (typically generated in duplicate) was fit globally to a 1:1 Langmuir binding model using the BIAevaluation program. This returned a unique pair of association and dissociation kinetic rate constants (respectively, kₒₙ and koff) for each binding interaction, whose ratio gave the equilibrium dissociation constant (KD=koff/kₒₙ).

[4] = molecular target: T4, human α-CGRP T30A (25-37) (human, not fully specified); assay: as above
T4 construct: the entry already carries T30A
T4 peptide: NNFVPANVGSKAF-NH2
Description: as §3

[5] = molecular target: T5, human α-CGRP S34A (25-37) (human, not fully specified); assay: as above
T5 construct: the entry already carries S34A
T5 peptide: NNFVPTNVGAKAF-NH2
Description: as §3

[6] = molecular target: T6, human α-CGRP F27A (25-37) (human, not fully specified); assay: as above
T6 construct: the entry already carries F27A
T6 peptide: NNAVPTNVGSKAF-NH2
Description: as §3

[7] = molecular target: T2, human α-CGRP 1-37 (WT); assay: as above
Description: as §3

[8] = molecular target: T7, human α-CGRP F37A (25-37) (human, not fully specified); assay: as above
T7 construct: the entry already carries F37A
T7 peptide: NNFVPTNVGSKAA-NH2
Description: as §3

[9] = molecular target: T8, human α-CGRP K35Q (19-37) (human, not fully specified); assay: as above
T8 construct: the entry already carries K35Q
T8 peptide: SGGVVKNNFVPTNVGSQAF-NH2
Description: as §3

[10] = molecular target: T9, human α-CGRP fragment 25-37 (human, not fully specified); assay: as above
T9 peptide: NNFVPTNVGSKAF-NH2
Description: as §3

[11] = molecular target: T10, human α-CGRP fragment 19-37 (human, not fully specified); assay: as above
T10 peptide: SGGVVKNNFVPTNVGSKAF-NH2
Description: as §3

[12] = molecular target: T11, human α-CGRP V32A (25-37) (human, not fully specified); assay: as above
T11 construct: the entry already carries V32A
T11 peptide: NNFVPTNAGSKAF-NH2
Description: as §3

[13] = molecular target: T12, Human amylin (1-37) (human, C-terminal amide); assay: Biacore competition: 50 nM G1 Fab with 10 µM peptide over human α-CGRP on chip
T12 peptide: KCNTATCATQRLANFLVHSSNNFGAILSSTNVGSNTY
Description: (§4) Y axis represents percentage of binding blocked by the presence of the competing peptide compared with the binding in the absence of the competing peptide.
(§5) All these peptides are amidated at the C-terminus.

[14] = molecular target: T13, Human adrenomedullin (1-52) (human, C-terminal amide); assay: as above
T13 peptide: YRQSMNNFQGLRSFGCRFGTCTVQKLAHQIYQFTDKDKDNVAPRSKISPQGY
Description: as §4, §5

[15] = molecular target: T14, Human calcitonin (1-32) (human, C-terminal amide); assay: as above
T14 peptide: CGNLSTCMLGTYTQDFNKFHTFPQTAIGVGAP
Description: as §4, §5

[16] = molecular target: T15, human α-CGRP 19-36 (human); assay: as above
T15 construct: also called 19-36-COOH; peptide fragment 19-36
T15 peptide: SGGVVKNNFVPTNVGSKA-OH
Description: as §4, §5

[17] = molecular target: T16, human α-CGRP 1-19-COOH (human, ends and bridges not checked); assay: as above
T16 peptide: ACDTATCVTHRLAGLLSRS-OH

[18] = molecular target: T17, human α-CGRP 1-13-COOH (human, ends and bridges not checked); assay: as above
T17 peptide: ACDTATCVTHRLA-OH

Kd [1]: 2.57 nM | Kd [2]: 0.063 nM | Kd [3]: 0.79 nM | Kd [4]: 0.47 nM | Kd [5]: 3.04 nM | Kd [6]: 0.38 nM | Kd [7]: 0.16 nM | Kd [8]: 95 nM | Kd [9]: 1.38 nM | Kd [10]: 0.28 nM | Kd [11]: 0.16 nM | Kd [12]: 1.71 nM | binding result [13]: no binding (tested: 10 µM peptide) | binding result [14]: no binding (tested: 10 µM peptide) | binding result [15]: no binding (tested: 10 µM peptide) | binding result [16]: no binding (tested: 10 µM peptide) | binding result [17]: no binding (tested: 10 µM peptide) | binding result [18]: no binding (tested: 10 µM peptide)
B1: antibody G1 Fab fragment (Fab, V domains shown)
VH: EVQLVESGGGLVQPGGSLRLSCAASGFTFSNYWISWVRQAPGKGLEWVAEIRSESDASATHYAEAVKGRFTISRDNAKNSLYLQMNSLRAEDTAVYYCLAYFDYGLAIQNYWGQGTLVTVSS
VL: EIVLTQSPATLSLSPGERATLSCKASKRVTTYVSWYQQKPGQAPRLLIYGASNRYLGIPARFSGSGSGTDFTLTISSLEPEDFAVYYCSQSYNYPYTFGQGTKLEIK

— US20190071490A1 (BETH ISRAEL DEACONESS MEDICAL CENTER, published 2019)
